Experimental data: publication PMC10786891, “Massively parallel profiling of RNA-targeting CRISPR-Cas13d”

T1: EsCas13d, nuclease-dead (Eubacterium siraeum, UniProt B0MS50, R295A;H300A;R849A;H854A)
T1 sequence: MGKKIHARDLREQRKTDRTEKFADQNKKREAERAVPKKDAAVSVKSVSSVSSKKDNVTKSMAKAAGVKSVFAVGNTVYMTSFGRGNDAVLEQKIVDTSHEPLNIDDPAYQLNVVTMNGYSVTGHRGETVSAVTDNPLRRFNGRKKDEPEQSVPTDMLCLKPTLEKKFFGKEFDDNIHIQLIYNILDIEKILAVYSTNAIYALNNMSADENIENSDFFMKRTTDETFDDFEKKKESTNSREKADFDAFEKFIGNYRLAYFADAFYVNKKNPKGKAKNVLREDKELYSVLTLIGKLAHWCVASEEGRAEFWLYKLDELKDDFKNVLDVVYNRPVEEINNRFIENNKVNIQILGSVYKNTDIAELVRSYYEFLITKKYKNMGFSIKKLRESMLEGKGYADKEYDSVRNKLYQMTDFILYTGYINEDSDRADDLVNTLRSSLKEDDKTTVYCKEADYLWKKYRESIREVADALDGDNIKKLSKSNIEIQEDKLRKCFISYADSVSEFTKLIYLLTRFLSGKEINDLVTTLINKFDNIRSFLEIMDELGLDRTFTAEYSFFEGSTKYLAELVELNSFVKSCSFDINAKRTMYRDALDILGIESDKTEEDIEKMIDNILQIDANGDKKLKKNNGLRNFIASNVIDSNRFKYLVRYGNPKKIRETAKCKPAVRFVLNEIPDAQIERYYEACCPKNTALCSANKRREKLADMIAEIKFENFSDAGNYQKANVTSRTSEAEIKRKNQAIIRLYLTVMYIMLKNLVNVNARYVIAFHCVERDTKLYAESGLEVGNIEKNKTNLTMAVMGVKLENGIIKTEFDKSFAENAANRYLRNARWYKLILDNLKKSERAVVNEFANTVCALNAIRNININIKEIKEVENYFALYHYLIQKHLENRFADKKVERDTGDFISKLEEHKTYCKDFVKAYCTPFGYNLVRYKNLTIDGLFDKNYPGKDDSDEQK


What follows are binders tested against T1, EsCas13d, nuclease-dead (assay: crRNA (strand 1, pre-loaded); Mg2+; 40 mM Tris-HCl pH 7.5, 150 mM NaCl, 6 mM MgCl2, 1 mM DTT, 0.1% Tween-20, 0.2 mg/ml BSA; 25 C; 10 min per concentration, then washed). Details: tags: His6-TwinStrep-SUMO cleaved; N-terminal SNAP kept (SNAP-Surface 488); label: 3' end held by stalled T7 RNA polymerase.

| Binder | Kd [nM] |
| --- | --- |
| target 1 insA 3' of 12,insU 3' of 12 (mixed) RNA 1: CACCCGUGCAAAAAUGCAGGGGUCUAAAACUGAGCGGAUAACCUCUCUAUGG RNA 2: GGGAAUGGAUCCACAUCUACGAAUUCGUACCAUAGAGAGGAUUUAUCCGCUCACCGAGAUCGGAAGAGCACACGU | 58 ± 16 |
| target 1 C6G,G17A (mixed) RNA 1: CACCCGUGCAAAAAUGCAGGGGUCUAAAACUGAGCGGAUAACCUCUCUAUGG RNA 2: GGGAAUGGAUCCACAUCUACGAAUUCGUACCAUAAAGAGGUUAUCGGCUCACCGAGAUCGGAAGAGCACACGU | 48 ± 6 |
| target 1 G17U,U19G (mixed) RNA 1: CACCCGUGCAAAAAUGCAGGGGUCUAAAACUGAGCGGAUAACCUCUCUAUGG RNA 2: GGGAAUGGAUCCACAUCUACGAAUUCGUACCAGAUAGAGGUUAUCCGCUCACCGAGAUCGGAAGAGCACACGU | 80 ± 40 |
| target 1 G17U,A20C (mixed) RNA 1: CACCCGUGCAAAAAUGCAGGGGUCUAAAACUGAGCGGAUAACCUCUCUAUGG RNA 2: GGGAAUGGAUCCACAUCUACGAAUUCGUACCCUAUAGAGGUUAUCCGCUCACCGAGAUCGGAAGAGCACACGU | 88 ± 21 |
| target 1 A1U,C2A (mixed) RNA 1: CACCCGUGCAAAAAUGCAGGGGUCUAAAACUGAGCGGAUAACCUCUCUAUGG RNA 2: GGGAAUGGAUCCACAUCUACGAAUUCGUACCAUAGAGAGGUUAUCCGCUAUCCGAGAUCGGAAGAGCACACGU | 8.4 ± 0.7 |
| target 1 complement block 1-7 (mixed) RNA 1: CACCCGUGCAAAAAUGCAGGGGUCUAAAACUGAGCGGAUAACCUCUCUAUGG RNA 2: GGGAAUGGAUCCACAUCUACGAAUUCGUACCAUAGAGAGGUUAUGGCGAGUCCGAGAUCGGAAGAGCACACGU | 23.9 ± 2.4 |
| target 1 insA 3' of 11,insC 3' of 1 (mixed) RNA 1: CACCCGUGCAAAAAUGCAGGGGUCUAAAACUGAGCGGAUAACCUCUCUAUGG RNA 2: GGGAAUGGAUCCACAUCUACGAAUUCGUACCAUAGAGAGGUAUAUCCGCUCACCCGAGAUCGGAAGAGCACACGU | 15.8 ± 1.1 |
| target 1 insC 3' of 10,insG 3' of 9 (mixed) RNA 1: CACCCGUGCAAAAAUGCAGGGGUCUAAAACUGAGCGGAUAACCUCUCUAUGG RNA 2: GGGAAUGGAUCCACAUCUACGAAUUCGUACCAUAGAGAGGUUCAGUCCGCUCACCGAGAUCGGAAGAGCACACGU | 17.1 ± 1 |
| target 1 insA 3' of 11,insG 3' of 1 (mixed) RNA 1: CACCCGUGCAAAAAUGCAGGGGUCUAAAACUGAGCGGAUAACCUCUCUAUGG RNA 2: GGGAAUGGAUCCACAUCUACGAAUUCGUACCAUAGAGAGGUAUAUCCGCUCAGCCGAGAUCGGAAGAGCACACGU | 20.8 ± 1 |
| target 1 insG 3' of 3,insG 3' of 2 (mixed) RNA 1: CACCCGUGCAAAAAUGCAGGGGUCUAAAACUGAGCGGAUAACCUCUCUAUGG RNA 2: GGGAAUGGAUCCACAUCUACGAAUUCGUACCAUAGAGAGGUUAUCCGCUGCGACCGAGAUCGGAAGAGCACACGU | 6.2 ± 0.4 |
| target 1 insC 3' of 14,insG 3' of 4 (mixed) RNA 1: CACCCGUGCAAAAAUGCAGGGGUCUAAAACUGAGCGGAUAACCUCUCUAUGG RNA 2: GGGAAUGGAUCCACAUCUACGAAUUCGUACCAUAGAGACGGUUAUCCGCGUCACCGAGAUCGGAAGAGCACACGU | 21 ± 1.2 |
| target 1 U11A,G13U (mixed) RNA 1: CACCCGUGCAAAAAUGCAGGGGUCUAAAACUGAGCGGAUAACCUCUCUAUGG RNA 2: GGGAAUGGAUCCACAUCUACGAAUUCGUACCAUAGAGAUGAUAUCCGCUCACCGAGAUCGGAAGAGCACACGU | 34.2 ± 2.2 |
| target 1 insU 3' of 20,insC 3' of 18 (mixed) RNA 1: CACCCGUGCAAAAAUGCAGGGGUCUAAAACUGAGCGGAUAACCUCUCUAUGG RNA 2: GGGAAUGGAUCCACAUCUACGAAUUCGUACCAUUACGAGAGGUUAUCCGCUCACCGAGAUCGGAAGAGCACACGU | 36 ± 4 |
| target 1 C4G,C21A (mixed) RNA 1: CACCCGUGCAAAAAUGCAGGGGUCUAAAACUGAGCGGAUAACCUCUCUAUGG RNA 2: GGGAAUGGAUCCACAUCUACGAAUUCGUACAAUAGAGAGGUUAUCCGGUCACCGAGAUCGGAAGAGCACACGU | 25.5 ± 2.8 |
| target 1 insC 3' of 10,insC 3' of 8 (mixed) RNA 1: CACCCGUGCAAAAAUGCAGGGGUCUAAAACUGAGCGGAUAACCUCUCUAUGG RNA 2: GGGAAUGGAUCCACAUCUACGAAUUCGUACCAUAGAGAGGUUCAUCCCGCUCACCGAGAUCGGAAGAGCACACGU | 63 ± 13 |
| target 1 insC 3' of 13,insC 3' of 5 (mixed) RNA 1: CACCCGUGCAAAAAUGCAGGGGUCUAAAACUGAGCGGAUAACCUCUCUAUGG RNA 2: GGGAAUGGAUCCACAUCUACGAAUUCGUACCAUAGAGAGCGUUAUCCGCCUCACCGAGAUCGGAAGAGCACACGU | 16.9 ± 1.2 |
| target 1 U10A,U11A (mixed) RNA 1: CACCCGUGCAAAAAUGCAGGGGUCUAAAACUGAGCGGAUAACCUCUCUAUGG RNA 2: GGGAAUGGAUCCACAUCUACGAAUUCGUACCAUAGAGAGGAAAUCCGCUCACCGAGAUCGGAAGAGCACACGU | 11.8 ± 0.4 |
| target 1 insC 3' of 15,insA 3' of 10 (mixed) RNA 1: CACCCGUGCAAAAAUGCAGGGGUCUAAAACUGAGCGGAUAACCUCUCUAUGG RNA 2: GGGAAUGGAUCCACAUCUACGAAUUCGUACCAUAGAGCAGGUUAAUCCGCUCACCGAGAUCGGAAGAGCACACGU | 65 ± 11 |
| target 1 C2G,U3C (mixed) RNA 1: CACCCGUGCAAAAAUGCAGGGGUCUAAAACUGAGCGGAUAACCUCUCUAUGG RNA 2: GGGAAUGGAUCCACAUCUACGAAUUCGUACCAUAGAGAGGUUAUCCGCCGACCGAGAUCGGAAGAGCACACGU | 8.6 ± 0.7 |
| target 1 U3G,G5U (mixed) RNA 1: CACCCGUGCAAAAAUGCAGGGGUCUAAAACUGAGCGGAUAACCUCUCUAUGG RNA 2: GGGAAUGGAUCCACAUCUACGAAUUCGUACCAUAGAGAGGUUAUCCUCGCACCGAGAUCGGAAGAGCACACGU | 14.1 ± 0.5 |
| target 1 insC 3' of 16,insC 3' of 1 (mixed) RNA 1: CACCCGUGCAAAAAUGCAGGGGUCUAAAACUGAGCGGAUAACCUCUCUAUGG RNA 2: GGGAAUGGAUCCACAUCUACGAAUUCGUACCAUAGACGAGGUUAUCCGCUCACCCGAGAUCGGAAGAGCACACGU | 77 ± 32 |
| target 1 insG 3' of 18,insA 3' of 12 (mixed) RNA 1: CACCCGUGCAAAAAUGCAGGGGUCUAAAACUGAGCGGAUAACCUCUCUAUGG RNA 2: GGGAAUGGAUCCACAUCUACGAAUUCGUACCAUAGGAGAGGAUUAUCCGCUCACCGAGAUCGGAAGAGCACACGU | 73 ± 32 |
| target 1 U3A,G5C (mixed) RNA 1: CACCCGUGCAAAAAUGCAGGGGUCUAAAACUGAGCGGAUAACCUCUCUAUGG RNA 2: GGGAAUGGAUCCACAUCUACGAAUUCGUACCAUAGAGAGGUUAUCCCCACACCGAGAUCGGAAGAGCACACGU | 16.9 ± 0.9 |
| target 1 insA 3' of 15,insG 3' of 3 (mixed) RNA 1: CACCCGUGCAAAAAUGCAGGGGUCUAAAACUGAGCGGAUAACCUCUCUAUGG RNA 2: GGGAAUGGAUCCACAUCUACGAAUUCGUACCAUAGAGAAGGUUAUCCGCUGCACCGAGAUCGGAAGAGCACACGU | 5.1 ± 0.4 |
| target 1 complement block 1-9 (mixed) RNA 1: CACCCGUGCAAAAAUGCAGGGGUCUAAAACUGAGCGGAUAACCUCUCUAUGG RNA 2: GGGAAUGGAUCCACAUCUACGAAUUCGUACCAUAGAGAGGUUUAGGCGAGUCCGAGAUCGGAAGAGCACACGU | 9.5 ± 0.7 |
| target 1 insA 3' of 11,insU 3' of 1 (mixed) RNA 1: CACCCGUGCAAAAAUGCAGGGGUCUAAAACUGAGCGGAUAACCUCUCUAUGG RNA 2: GGGAAUGGAUCCACAUCUACGAAUUCGUACCAUAGAGAGGUAUAUCCGCUCAUCCGAGAUCGGAAGAGCACACGU | 19 ± 1.3 |
| target 1 A20C (mixed) RNA 1: CACCCGUGCAAAAAUGCAGGGGUCUAAAACUGAGCGGAUAACCUCUCUAUGG RNA 2: GGGAAUGGAUCCACAUCUACGAAUUCGUACCCUAGAGAGGUUAUCCGCUCACCGAGAUCGGAAGAGCACACGU | 34.2 ± 2.5 |
| target 1 insA 3' of 22,insC 3' of 22 (mixed) RNA 1: CACCCGUGCAAAAAUGCAGGGGUCUAAAACUGAGCGGAUAACCUCUCUAUGG RNA 2: GGGAAUGGAUCCACAUCUACGAAUUCGUACACCAUAGAGAGGUUAUCCGCUCACCGAGAUCGGAAGAGCACACGU | 8.92 ± 0.33 |
